Measured values: paper PMC8336959 (Science Advances, 2021)
Square brackets hold non-standard residues; d marks the D form. Ends that are not written are not given here. pY = N[C@@H](Cc1ccc(OP(=O)(O)O)cc1)C(=O)O; pS = N[C@@H](COP(=O)(O)O)C(=O)O

B1: RPA70 N-terminal OB1 domain (RPA70N, residues 1 to 120), Atto488-labeled (domain or fragment)
chain: MVGQLSEGAIAAIMQKGDTNIKPILQVINIRPITTGNSPPRYRLLMSDGLNTLSSFMLATQLNPLVEEEQLSSNCVCQIHRFIVNTLKDGRRVVILMELEVLKSAEAVGVKIGNPVPYNE
modifications: Atto488 label

Key:
Assay in all cases: MST
[1] = molecular target: GRB2, wild type, bacterially expressed and purified (UniProt P62993 1-217)
GRB2, wild type, bacterially expressed and purified, sequence (P62993 whole entry, the tested form may be a part): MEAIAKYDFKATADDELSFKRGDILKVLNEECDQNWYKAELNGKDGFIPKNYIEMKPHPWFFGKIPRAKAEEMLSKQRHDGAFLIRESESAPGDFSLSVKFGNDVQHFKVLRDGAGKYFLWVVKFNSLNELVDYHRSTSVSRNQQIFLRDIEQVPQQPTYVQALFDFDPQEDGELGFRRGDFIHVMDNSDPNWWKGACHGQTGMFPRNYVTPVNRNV

[2] = molecular target: Atto488-labeled GRB2-SH2 domain (UniProt P62993 60-152, Atto488 label)
Atto488-labeled GRB2-SH2 domain, sequence (P62993 60-152): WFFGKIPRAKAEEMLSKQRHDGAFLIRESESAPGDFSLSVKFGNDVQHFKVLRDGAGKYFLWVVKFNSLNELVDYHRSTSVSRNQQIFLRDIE

[3] = molecular target: B1

Binder	binding result [1]	Kd [2] [µM]	other results
B1	binds	–	–
PWVN[pY]QDGNLN [Tyrosine-phosphorylated MRE11 peptide]	binds	–	–
PWVNYQDGNLN [MRE11 peptide]	–	33 ± 15	–
FLPVPE[pY]INQSVPKR [Phosphorylated EGFR synthetic peptide]	–	7.2 ± 2	–
PSGGKKATQA[pS]QE[pY] [Dual-phosphorylated H2AX (pH2AX) peptide]	binds	–	–
KYDFKATADDELSFKRG [GRB2 OB1 peptide]	–	–	binding result [3]: binds
